Tests used:
[1] = biological target: T1, Wheat Lr67 (susceptible) protein, Lr67(sus), SUT sugar transporter, SEQ ID NO:4 (Triticum aestivum, UniProt W5ELX6); test: Concentration-dependent uptake of [14C] glucose in yeast expressing Lr67(sus); type: cell-based; details: [14C] glucose uptake; Lr67(sus) expressed in hexose transport deficient Saccharomyces cerevisiae EBY.VW4000; Lineweaver-Burk linear regression
T1 construct: D-genome copy) in pRS416 with ADH1 promoter, expressed in S. cerevisiae EBY.VW4000 (hexose transport deficient)
T1 sequence (W5ELX6 1-514): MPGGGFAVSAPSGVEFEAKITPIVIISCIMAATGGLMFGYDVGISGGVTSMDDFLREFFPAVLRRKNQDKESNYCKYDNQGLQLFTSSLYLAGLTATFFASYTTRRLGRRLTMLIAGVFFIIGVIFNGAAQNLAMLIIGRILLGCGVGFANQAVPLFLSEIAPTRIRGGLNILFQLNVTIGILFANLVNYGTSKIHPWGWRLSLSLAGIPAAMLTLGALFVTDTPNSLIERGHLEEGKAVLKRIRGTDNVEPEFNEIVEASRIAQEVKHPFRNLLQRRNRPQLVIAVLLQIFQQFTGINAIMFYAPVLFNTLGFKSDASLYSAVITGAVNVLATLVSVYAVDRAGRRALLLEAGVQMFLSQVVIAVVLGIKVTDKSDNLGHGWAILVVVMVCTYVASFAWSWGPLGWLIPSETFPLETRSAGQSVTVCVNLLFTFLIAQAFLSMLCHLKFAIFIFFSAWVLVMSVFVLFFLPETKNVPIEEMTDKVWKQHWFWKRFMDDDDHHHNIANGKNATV
Procedure: (§1) The following experiments were completed using the protein coding regions for the Lr67 polypeptides (resistant and susceptible alleles) cloned into the yeast expression vector pRS416. This vector contained the constitutive ADH1 promoter and CYC1 terminator for expression of the inserted coding regions. The yeast strain employed was a hexose transport deficient variant of Saccharomyces cerevisiae named EBY.VW4000. Uptake was determined using radio labelled [^14C] glucose with incorporation radio-assayed by liquid scintillation counting.
(§2) The Lineweaver-Burk equation was used to convert data for linear regression analysis.

[2] = substrate: OC[C@H]1OC(O)[C@H](O)[C@@H](O)[C@@H]1O; test: cells, lysate or membranes; details: other: [14C] glucose uptake; Lr67(sus) expressed in hexose transport deficient Saccharomyces cerevisiae EBY.VW4000; Lineweaver-Burk linear regression
[3] = test system: hexose transport deficient variant of Saccharomyces cerevisiae named EBY.VW4000; test: Glucose uptake by yeast cells expressing Lr67 polypeptides, radio labelled [14C] glucose; type: cell-based; details: 100 μM [14C] glucose for 10 minutes, tested at 2 minute intervals, vs empty vector, FIG. 11
Text: as §1, with “EBY.VW4000.” for “EBY.VW4000. Uptake was determined using radio labelled [^14C] glucose with incorporation radio-assayed by liquid scintillation counting.”
as §2

OC[C@H]1OC(O)[C@H](O)[C@@H](O)[C@@H]1O (stereo partly shown) [glucose]
Vmax [1]: 3.02 nmol min^−1 g FW^−1

B1: Wheat Lr67 (susceptible) protein, Lr67(sus), SUT sugar transporter, SEQ ID NO:4 (Triticum aestivum) (protein)
chain: MPGGGFAVSAPSGVEFEAKITPIVIISCIMAATGGLMFGYDVGISGGVTSMDDFLREFFPAVLRRKNQDKESNYCKYDNQGLQLFTSSLYLAGLTATFFASYTTRRLGRRLTMLIAGVFFIIGVIFNGAAQNLAMLIIGRILLGCGVGFANQAVPLFLSEIAPTRIRGGLNILFQLNVTIGILFANLVNYGTSKIHPWGWRLSLSLAGIPAAMLTLGALFVTDTPNSLIERGHLEEGKAVLKRIRGTDNVEPEFNEIVEASRIAQEVKHPFRNLLQRRNRPQLVIAVLLQIFQQFTGINAIMFYAPVLFNTLGFKSDASLYSAVITGAVNVLATLVSVYAVDRAGRRALLLEAGVQMFLSQVVIAVVLGIKVTDKSDNLGHGWAILVVVMVCTYVASFAWSWGPLGWLIPSETFPLETRSAGQSVTVCVNLLFTFLIAQAFLSMLCHLKFAIFIFFSAWVLVMSVFVLFFLPETKNVPIEEMTDKVWKQHWFWKRFMDDDDHHHNIANGKNATV
Km [2]: 73 µM
Glucose uptake over time [3]: capable of transporting glucose at a higher rate than yeast cells expressing the Lr67 resistant allele or empty vector

B2: Lr67(res): Wheat Lr67 (resistant) protein, 514 amino acids, arginine at position 144 and leucine at position 387 (protein, listed as Triticum aestivum)
chain: MPGGGFAVSAPSGVEFEAKITPIVIISCIMAATGGLMFGYDVGISGGVTSMDDFLREFFPAVLRRKNQDKESNYCKYDNQGLQLFTSSLYLAGLTATFFASYTTRRLGRRLTMLIAGVFFIIGVIFNGAAQNLAMLIIGRILLRCGVGFANQAVPLFLSEIAPTRIRGGLNILFQLNVTIGILFANLVNYGTSKIHPWGWRLSLSLAGIPAAMLTLGALFVTDTPNSLIERGHLEEGKAVLKRIRGTDNVEPEFNEIVEASRIAQEVKHPFRNLLQRRNRPQLVIAVLLQIFQQFTGINAIMFYAPVLFNTLGFKSDASLYSAVITGAVNVLATLVSVYAVDRAGRRALLLEAGVQMFLSQVVIAVVLGIKVTDKSDNLGHGWAILLVVMVCTYVASFAWSWGPLGWLIPSETFPLETRSAGQSVTVCVNLLFTFLIAQAFLSMLCHLKFAIFIFFSAWVLVMSVFVLFFLPETKNVPIEEMTDKVWKQHWFWKRFMDDDDHHHNIANGKNATV
Glucose uptake over time [3]: did not show detectable glucose transport activity above the control

Reference: patent US12037595B2, “Rust resistance gene” (Commonwealth Scientific and Industrial Research Organisation, priority 2013, dated 2024)
